According to the supplement of paper PMC9876800:

Each substance was assayed on peptide library, one residue held at a place counted from the S/T acceptor (assay: relative phosphorylation of the sub-library (ratio to the mean residue at this position); human; higher = residue favoured). Settings: pThr fixed; at -4.
Method in brief: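 Human or orthologue kinase constructs, purified and recombinant, were incubated under kinase-specific conditions in 384-well plates with biotinylated degenerate peptide sub-libraries. Each sub-library fixed one residue at one position around a central Ser/Thr. Incubations lasted 90 min with peptides at 50 μM and 50 μM ATP spiked with γ-32P-ATP, after which spots on streptavidin membranes were phosphorimaged and quantified by densitometry. Relative sub-library phosphorylation is a ratio to the mean residue at that position.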

GRK7, construct: Full length, sequence (Q8WTQ7 whole entry, looked up): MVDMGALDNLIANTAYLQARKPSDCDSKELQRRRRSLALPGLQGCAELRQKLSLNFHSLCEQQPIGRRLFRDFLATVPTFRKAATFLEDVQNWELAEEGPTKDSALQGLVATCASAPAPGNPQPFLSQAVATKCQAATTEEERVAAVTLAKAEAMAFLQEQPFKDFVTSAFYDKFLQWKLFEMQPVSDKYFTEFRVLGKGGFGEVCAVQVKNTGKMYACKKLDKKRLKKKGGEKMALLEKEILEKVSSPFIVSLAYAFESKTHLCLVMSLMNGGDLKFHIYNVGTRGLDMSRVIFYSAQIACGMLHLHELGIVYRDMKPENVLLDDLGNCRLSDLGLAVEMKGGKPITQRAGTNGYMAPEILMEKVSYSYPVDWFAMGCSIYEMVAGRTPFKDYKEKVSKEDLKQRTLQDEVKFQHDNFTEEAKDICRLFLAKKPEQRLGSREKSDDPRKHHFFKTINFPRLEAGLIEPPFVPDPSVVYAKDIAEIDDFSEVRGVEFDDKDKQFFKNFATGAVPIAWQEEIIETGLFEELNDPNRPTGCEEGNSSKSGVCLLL
NEK4, construct: Full length, sequence (P51957 whole entry, looked up): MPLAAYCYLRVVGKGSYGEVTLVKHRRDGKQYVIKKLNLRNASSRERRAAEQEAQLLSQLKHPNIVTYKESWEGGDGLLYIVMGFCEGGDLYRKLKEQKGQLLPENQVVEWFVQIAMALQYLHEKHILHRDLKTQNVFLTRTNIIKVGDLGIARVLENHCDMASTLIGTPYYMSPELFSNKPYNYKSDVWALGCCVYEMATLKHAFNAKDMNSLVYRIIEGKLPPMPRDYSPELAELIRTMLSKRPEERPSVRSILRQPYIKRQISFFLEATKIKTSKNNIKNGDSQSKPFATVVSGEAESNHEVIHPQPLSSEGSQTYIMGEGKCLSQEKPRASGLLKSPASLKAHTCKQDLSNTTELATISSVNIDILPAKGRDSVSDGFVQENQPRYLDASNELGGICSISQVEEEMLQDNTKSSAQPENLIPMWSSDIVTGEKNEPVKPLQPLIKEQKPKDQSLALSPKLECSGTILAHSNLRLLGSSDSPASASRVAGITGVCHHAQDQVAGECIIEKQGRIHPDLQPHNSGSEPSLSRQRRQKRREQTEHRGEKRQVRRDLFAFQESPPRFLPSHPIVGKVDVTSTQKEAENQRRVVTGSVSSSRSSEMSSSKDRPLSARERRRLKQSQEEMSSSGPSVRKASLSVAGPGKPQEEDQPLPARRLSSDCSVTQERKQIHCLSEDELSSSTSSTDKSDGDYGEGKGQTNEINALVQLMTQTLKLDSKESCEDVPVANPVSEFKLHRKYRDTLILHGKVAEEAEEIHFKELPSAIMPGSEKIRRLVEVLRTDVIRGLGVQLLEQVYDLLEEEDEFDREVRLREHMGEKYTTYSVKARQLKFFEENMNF
GRK2, construct: Full length, sequence (P25098 whole entry, looked up): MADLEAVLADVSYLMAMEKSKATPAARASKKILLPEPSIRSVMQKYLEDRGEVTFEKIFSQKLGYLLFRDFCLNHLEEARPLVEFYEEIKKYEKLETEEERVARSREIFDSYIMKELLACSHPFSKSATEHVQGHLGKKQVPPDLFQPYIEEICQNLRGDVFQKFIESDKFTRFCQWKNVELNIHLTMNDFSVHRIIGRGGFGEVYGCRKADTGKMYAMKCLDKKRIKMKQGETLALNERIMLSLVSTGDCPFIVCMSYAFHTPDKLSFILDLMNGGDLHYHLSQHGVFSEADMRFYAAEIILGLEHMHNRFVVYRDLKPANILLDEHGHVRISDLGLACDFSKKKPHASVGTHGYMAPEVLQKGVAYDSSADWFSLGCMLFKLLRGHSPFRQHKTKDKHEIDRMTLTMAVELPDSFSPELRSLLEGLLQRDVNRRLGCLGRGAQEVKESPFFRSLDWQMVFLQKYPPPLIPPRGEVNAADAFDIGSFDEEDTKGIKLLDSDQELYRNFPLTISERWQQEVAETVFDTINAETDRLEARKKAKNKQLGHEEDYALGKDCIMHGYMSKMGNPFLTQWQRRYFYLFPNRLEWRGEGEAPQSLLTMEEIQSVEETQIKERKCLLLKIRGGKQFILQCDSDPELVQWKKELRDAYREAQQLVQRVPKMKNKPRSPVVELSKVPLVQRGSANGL
NEK11, construct: Full length, sequence (Q8NG66 whole entry, looked up): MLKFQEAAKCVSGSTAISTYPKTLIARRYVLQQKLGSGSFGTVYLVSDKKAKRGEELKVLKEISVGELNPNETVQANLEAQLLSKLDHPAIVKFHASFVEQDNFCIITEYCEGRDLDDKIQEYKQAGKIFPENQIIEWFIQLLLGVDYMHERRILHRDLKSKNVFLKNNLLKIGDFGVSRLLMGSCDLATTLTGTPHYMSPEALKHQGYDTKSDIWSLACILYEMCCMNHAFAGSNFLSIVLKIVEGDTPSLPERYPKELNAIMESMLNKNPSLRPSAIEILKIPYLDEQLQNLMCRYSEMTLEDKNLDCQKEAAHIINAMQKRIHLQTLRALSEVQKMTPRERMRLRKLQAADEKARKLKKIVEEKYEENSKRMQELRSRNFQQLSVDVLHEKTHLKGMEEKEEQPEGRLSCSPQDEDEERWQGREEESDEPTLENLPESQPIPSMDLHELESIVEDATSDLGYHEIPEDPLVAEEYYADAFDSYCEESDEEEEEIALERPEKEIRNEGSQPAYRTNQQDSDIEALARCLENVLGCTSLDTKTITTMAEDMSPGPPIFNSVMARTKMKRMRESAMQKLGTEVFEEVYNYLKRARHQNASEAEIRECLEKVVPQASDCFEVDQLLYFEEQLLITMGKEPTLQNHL
TP53RK, construct: Full length, sequence (Q96S44 whole entry, looked up): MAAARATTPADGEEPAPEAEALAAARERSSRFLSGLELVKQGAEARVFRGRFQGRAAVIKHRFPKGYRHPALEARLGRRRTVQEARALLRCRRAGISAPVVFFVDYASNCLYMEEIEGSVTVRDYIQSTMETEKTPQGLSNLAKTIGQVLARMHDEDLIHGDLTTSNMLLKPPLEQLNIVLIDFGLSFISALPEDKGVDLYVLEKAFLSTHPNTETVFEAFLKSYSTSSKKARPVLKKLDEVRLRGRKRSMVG
SGK3, construct: aa119-end, sequence (Q96BR1 119-496, looked up): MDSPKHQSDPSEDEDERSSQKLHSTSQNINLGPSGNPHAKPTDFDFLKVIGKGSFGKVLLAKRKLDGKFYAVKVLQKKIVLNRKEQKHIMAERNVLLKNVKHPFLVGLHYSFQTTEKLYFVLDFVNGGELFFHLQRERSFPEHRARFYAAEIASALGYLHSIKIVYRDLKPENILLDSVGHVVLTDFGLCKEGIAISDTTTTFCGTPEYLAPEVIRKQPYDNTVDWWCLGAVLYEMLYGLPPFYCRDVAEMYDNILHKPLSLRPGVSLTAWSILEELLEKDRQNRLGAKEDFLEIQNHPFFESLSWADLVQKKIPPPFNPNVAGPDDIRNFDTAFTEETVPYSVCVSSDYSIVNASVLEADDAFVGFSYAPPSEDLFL
AURKB, construct: Full length, sequence (Q96GD4 whole entry, looked up): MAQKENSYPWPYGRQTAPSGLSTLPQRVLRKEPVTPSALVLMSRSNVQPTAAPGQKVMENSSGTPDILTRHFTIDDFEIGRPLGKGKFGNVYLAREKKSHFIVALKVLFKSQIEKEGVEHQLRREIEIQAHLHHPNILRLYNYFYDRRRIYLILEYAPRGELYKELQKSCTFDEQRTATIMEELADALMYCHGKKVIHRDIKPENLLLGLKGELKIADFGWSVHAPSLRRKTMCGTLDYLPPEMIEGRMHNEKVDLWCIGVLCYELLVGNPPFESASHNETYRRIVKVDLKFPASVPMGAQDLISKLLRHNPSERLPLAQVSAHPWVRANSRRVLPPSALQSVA

Compared with “TP53RK, construct: Full length (from UniProt Q96S44)”, “GRK2, construct: Full length (from UniProt P25098)” is higher in relative phosphorylation: 0.973 for the first, 2.09 for the second.

Going from “NEK4, construct: Full length (from UniProt P51957)” to “AURKB, construct: Full length (from UniProt Q96GD4)”, the relative phosphorylation falls from 0.793 to 0.691.

Going from “SGK3, construct: aa119-end (from UniProt Q96BR1)” to “GRK7, construct: Full length (from UniProt Q8WTQ7)”, the relative phosphorylation rises from 0.743 to 2.06.

Same assay, conditions: pThr fixed; at -5

First: NEK11, construct: Full length (from UniProt Q8NG66)
Second: MKNK1, construct: Full length (D165-205) (from UniProt Q9BUB5)
The relative phosphorylation of the first is higher: 1.17 for the first, 0.677 for the second.

First: TP53RK, construct: Full length (from UniProt Q96S44)
Second: GRK2, construct: Full length (from UniProt P25098)
The relative phosphorylation of the first is lower: 0.943 for the first, 1.27 for the second.

Going from “NEK4, construct: Full length (from UniProt P51957)” to “AURKB, construct: Full length (from UniProt Q96GD4)”, the relative phosphorylation falls from 0.867 to 0.716.

First: SGK3, construct: aa119-end (from UniProt Q96BR1)
Second: GRK7, construct: Full length (from UniProt Q8WTQ7)
The relative phosphorylation of the first is lower: 0.567 for the first, 1.5 for the second.

Same assay, conditions: pTyr fixed; at +1

Compared with “NEK11, construct: Full length (from UniProt Q8NG66)”, “MKNK1, construct: Full length (D165-205) (from UniProt Q9BUB5)” is higher in relative phosphorylation: 0.509 for the first, 0.868 for the second.

Going from “TP53RK, construct: Full length (from UniProt Q96S44)” to “GRK2, construct: Full length (from UniProt P25098)”, the relative phosphorylation rises from 1.05 to 2.37.

Going from “NEK4, construct: Full length (from UniProt P51957)” to “AURKB, construct: Full length (from UniProt Q96GD4)”, the relative phosphorylation rises from 0.248 to 0.59.

Going from “SGK3, construct: aa119-end (from UniProt Q96BR1)” to “GRK7, construct: Full length (from UniProt Q8WTQ7)”, the relative phosphorylation rises from 0.778 to 7.56.

Same assay, conditions: pTyr fixed; at +2

Going from “NEK11, construct: Full length (from UniProt Q8NG66)” to “MKNK1, construct: Full length (D165-205) (from UniProt Q9BUB5)”, the relative phosphorylation rises from 0.51 to 1.32.

Compared with “TP53RK, construct: Full length (from UniProt Q96S44)”, “GRK2, construct: Full length (from UniProt P25098)” is higher in relative phosphorylation: 1.11 for the first, 1.57 for the second.

First: NEK4, construct: Full length (from UniProt P51957)
Second: AURKB, construct: Full length (from UniProt Q96GD4)
The relative phosphorylation of the first is higher: 0.588 for the first, 0.435 for the second.

Going from “SGK3, construct: aa119-end (from UniProt Q96BR1)” to “GRK7, construct: Full length (from UniProt Q8WTQ7)”, the relative phosphorylation rises from 0.681 to 1.29.

Same assay, conditions: pTyr fixed; at +3

First: NEK11, construct: Full length (from UniProt Q8NG66)
Second: MKNK1, construct: Full length (D165-205) (from UniProt Q9BUB5)
The relative phosphorylation of the first is higher: 0.848 for the first, 0.756 for the second.

First: TP53RK, construct: Full length (from UniProt Q96S44)
Second: GRK2, construct: Full length (from UniProt P25098)
The relative phosphorylation of the first is lower: 1.02 for the first, 1.47 for the second.

First: NEK4, construct: Full length (from UniProt P51957)
Second: AURKB, construct: Full length (from UniProt Q96GD4)
The relative phosphorylation of the first is lower: 0.557 for the first, 0.847 for the second.

Going from “SGK3, construct: aa119-end (from UniProt Q96BR1)” to “GRK7, construct: Full length (from UniProt Q8WTQ7)”, the relative phosphorylation rises from 0.97 to 1.41.

Same assay, conditions: pTyr fixed; at +4

Going from “NEK11, construct: Full length (from UniProt Q8NG66)” to “MKNK1, construct: Full length (D165-205) (from UniProt Q9BUB5)”, the relative phosphorylation rises from 0.63 to 1.46.

Going from “TP53RK, construct: Full length (from UniProt Q96S44)” to “GRK2, construct: Full length (from UniProt P25098)”, the relative phosphorylation rises from 1.01 to 1.62.

Compared with “NEK4, construct: Full length (from UniProt P51957)”, “AURKB, construct: Full length (from UniProt Q96GD4)” is higher in relative phosphorylation: 0.506 for the first, 0.784 for the second.

Compared with “SGK3, construct: aa119-end (from UniProt Q96BR1)”, “GRK7, construct: Full length (from UniProt Q8WTQ7)” is higher in relative phosphorylation: 0.875 for the first, 1.9 for the second.

Same assay, conditions: pTyr fixed; at -1

First: NEK11, construct: Full length (from UniProt Q8NG66)
Second: MKNK1, construct: Full length (D165-205) (from UniProt Q9BUB5)
The relative phosphorylation of the first is higher: 1.11 for the first, 0.294 for the second.

Going from “TP53RK, construct: Full length (from UniProt Q96S44)” to “GRK2, construct: Full length (from UniProt P25098)”, the relative phosphorylation falls from 3.48 to 2.11.

First: NEK4, construct: Full length (from UniProt P51957)
Second: AURKB, construct: Full length (from UniProt Q96GD4)
The relative phosphorylation of the first is higher: 0.752 for the first, 0.461 for the second.

Going from “SGK3, construct: aa119-end (from UniProt Q96BR1)” to “GRK7, construct: Full length (from UniProt Q8WTQ7)”, the relative phosphorylation rises from 0.801 to 2.83.

Same assay, conditions: pTyr fixed; at -2

Compared with “NEK11, construct: Full length (from UniProt Q8NG66)”, “MKNK1, construct: Full length (D165-205) (from UniProt Q9BUB5)” is lower in relative phosphorylation: 0.973 for the first, 0.373 for the second.

Going from “TP53RK, construct: Full length (from UniProt Q96S44)” to “GRK2, construct: Full length (from UniProt P25098)”, the relative phosphorylation rises from 1.31 to 14.3.

Going from “NEK4, construct: Full length (from UniProt P51957)” to “AURKB, construct: Full length (from UniProt Q96GD4)”, the relative phosphorylation falls from 1.11 to 0.272.

Compared with “SGK3, construct: aa119-end (from UniProt Q96BR1)”, “GRK7, construct: Full length (from UniProt Q8WTQ7)” is higher in relative phosphorylation: 0.44 for the first, 3.58 for the second.

Same assay, conditions: pTyr fixed; at -3

First: NEK11, construct: Full length (from UniProt Q8NG66)
Second: MKNK1, construct: Full length (D165-205) (from UniProt Q9BUB5)
The relative phosphorylation of the first is higher: 1.42 for the first, 0.447 for the second.

First: TP53RK, construct: Full length (from UniProt Q96S44)
Second: GRK2, construct: Full length (from UniProt P25098)
The relative phosphorylation of the first is lower: 1.08 for the first, 3.56 for the second.

First: NEK4, construct: Full length (from UniProt P51957)
Second: AURKB, construct: Full length (from UniProt Q96GD4)
The relative phosphorylation of the first is higher: 0.806 for the first, 0.62 for the second.

Going from “SGK3, construct: aa119-end (from UniProt Q96BR1)” to “GRK7, construct: Full length (from UniProt Q8WTQ7)”, the relative phosphorylation rises from 0.552 to 2.14.

Same assay, conditions: pTyr fixed; at -4

First: NEK11, construct: Full length (from UniProt Q8NG66)
Second: MKNK1, construct: Full length (D165-205) (from UniProt Q9BUB5)
The relative phosphorylation of the first is higher: 0.98 for the first, 0.596 for the second.

Going from “TP53RK, construct: Full length (from UniProt Q96S44)” to “GRK2, construct: Full length (from UniProt P25098)”, the relative phosphorylation rises from 0.942 to 2.58.

First: NEK4, construct: Full length (from UniProt P51957)
Second: AURKB, construct: Full length (from UniProt Q96GD4)
The relative phosphorylation of the first is higher: 0.755 for the first, 0.556 for the second.

First: SGK3, construct: aa119-end (from UniProt Q96BR1)
Second: GRK7, construct: Full length (from UniProt Q8WTQ7)
The relative phosphorylation of the first is lower: 0.76 for the first, 1.9 for the second.

Same assay, conditions: pTyr fixed; at -5

First: NEK11, construct: Full length (from UniProt Q8NG66)
Second: MKNK1, construct: Full length (D165-205) (from UniProt Q9BUB5)
The relative phosphorylation of the first is higher: 1.27 for the first, 0.942 for the second.

Compared with “TP53RK, construct: Full length (from UniProt Q96S44)”, “GRK2, construct: Full length (from UniProt P25098)” is higher in relative phosphorylation: 0.944 for the first, 1.57 for the second.

Going from “NEK4, construct: Full length (from UniProt P51957)” to “AURKB, construct: Full length (from UniProt Q96GD4)”, the relative phosphorylation falls from 1.01 to 0.66.

Compared with “SGK3, construct: aa119-end (from UniProt Q96BR1)”, “GRK7, construct: Full length (from UniProt Q8WTQ7)” is higher in relative phosphorylation: 0.791 for the first, 1.67 for the second.
